Data from the supplement of paper PMC10567573.
± gives the standard deviation.

Test: protein stability index of a GFP-peptide fusion (GPS, HEK-293T) (PSI 1-6); higher = more stable
[1] = treatment: DMSO, c terminus: a fixed tail appended
[2] = treatment: MLN4924 1 uM, 8 h, c terminus: a fixed tail appended
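Note: 24-mer peptide tiles fused after GFP, lentivirally expressed, FACS-sorted into six equal bins by GFP/DsRed ratio, decoded by Illumina sequencing, PSI is the read-weighted mean bin number.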

Sequence | protein stability index [1] | protein stability index [2] | protein stability index (treatment: DMSO, c terminus: native) | protein stability index (treatment: MLN4924 1 uM, 8 h, c terminus: native)
MHGNEALGRELMLQLSEFLCEEFR [CPN1] | 2.24 ± 0.49 | 2.67 ± 0.22 | – | –
EEFAQAESKDQGKTLALARTMDIP [ALDH8A1] | 5.13 ± 0.19 | 5.38 ± 0.15 | – | –
NGQKPLGAAEPITVKFANNPSQKT [ELAVL3] | 4.85 ± 0.36 | 4.83 ± 0.23 | – | –
YRQKLLMFLEISSYYDPGRLICDF [VPS39] | 2.92 ± 0.55 | 2.7 ± 0.56 | – | –
SYRIHNGQKLVVPGLLGSMALSNH [FBXO3] | 2.35 ± 0.27 | 2.43 ± 0.31 | – | –
PGLLSLATTSASDSLKPEQLDIEE [TFE3] | 5.35 ± 0.23 | 5.55 ± 0.17 | – | –
LRRKEQLWEKLAKQGELPREVRRA [NOP53] | 3.58 ± 0.18 | 3.7 ± 0.36 | – | –
DCSGLVLLCLFFGIPWEAGARQIS [PCDHGA10] | 3.45 ± 0.4 | 3.19 ± 0.2 | – | –
RQRLAKNDRGDHYHWKDLNRGINI [EFHC1] | 2.96 ± 0.46 | 2.99 ± 0.21 | – | –
LQELCYQWLRPHVSTKEQILDLLV [ZSCAN9] | 2.52 ± 0.094 | 2.45 ± 0.28 | – | –
AYMDRRDHPLPEVAHVKHLSASQK [COX4I1] | 4.34 ± 0.32 | 4.6 ± 0.32 | – | –
QLRLLQAPLQADLTEQVWKVQDAL [SCARA5] | 3.15 ± 0.28 | 3.12 ± 0.3 | – | –
EHIYDLRSLENYHFVDEHGKDQGI [CLINT1] | 4.1 ± 0.25 | 4.08 ± 0.1 | – | –
EWAALGNMSKEDAMVEFVKLLNRC [ACBD3] | 2.48 ± 0.22 | 2.59 ± 0.3 | – | –
AFERQQVENRVVEEAKGLLDKVKD [ZBED1] | 4.97 ± 0.38 | 5.61 ± 0.19 | – | –
LMSGCSSELKNRMEYALNMLLQRC [PLK2] | 2.04 ± 0.22 | 2.22 ± 0.29 | – | –
RAMRYYYKREILERVDGRRLVYKF [ELF3] | 2.49 ± 0.15 | 2.63 ± 0.41 | – | –
ERYFIPVSCFLTFNIFDWLGRSLT [SLC29A1] | 2.77 ± 0.26 | 3.08 ± 0.46 | – | –
QRAPQLPTWWPLPTQVPAAEDYLT [SPAG8] | 3.12 ± 0.2 | 3.23 ± 0.21 | – | –
KAKFCSTVANDVMLRTGLGVIRMW [NETO1] | 2.7 ± 0.51 | 2.27 ± 0.29 | – | –
KAFWKEDNALWERDRNLLQEDKAL [CCDC70] | 4.16 ± 0.081 | 4.24 ± 0.18 | – | –
CVPAHPPPCAWACPVPAHRRGSWR [CTBP1-DT] | 2.56 ± 0.19 | 2.77 ± 0.18 | – | –
SPVTRTRSLSACNKRVGMYLEGFD [DLC1] | 3 ± 0.3 | 3.19 ± 0.3 | – | –

Sequence | protein stability index [1] | protein stability index [2] | protein stability index (treatment: DMSO, c terminus: native) | protein stability index (treatment: MLN4924 1 uM, 8 h, c terminus: native)
CNECAKLIIQAGIKEVIFMSDKYH [DCTD] | 2.01 ± 0.81 | 2.43 ± 0.41 | – | –
KSKSITNLAAAAADIPQDQLVVMH [BTBD10] | 4.43 ± 0.34 | 4.64 ± 0.4 | – | –
MKFVPRYSLVLELSDSGAFRRSLH [APMAP] | 2.17 ± 0.54 | 2.03 ± 0.51 | – | –
SCCMTEEIFGPVTCVVPFDSEEEV [ALDH8A1] | 4.71 ± 0.34 | 4.83 ± 0.27 | – | –
DWGPCSGSCGQGRTIRHVYCKTSD [ADAMTSL2] | 3.43 ± 0.25 | 3.44 ± 0.33 | – | –
KEHWTPEGHSIVGFAMYYFTYDPW [SAT1] | 3.05 ± 0.44 | 3.1 ± 0.43 | – | –
DLSSESSIKKKFLKRKGKTDSPWI [EHMT1] | 3.42 ± 0.37 | 3.66 ± 0.26 | – | –
GTDRIVKIWDMTPVVGCSLATGFS [WDFY1] | 2.66 ± 0.16 | 2.79 ± 0.48 | – | –
DVKDWWLFGFYFCMPLVCTAIFYT [EDNRA] | 2.76 ± 0.45 | 3.56 ± 0.84 | – | –
VVGFDLELGQAVEVIYPQHSKLTD [DENND6A] | 2.03 ± 0.097 | 2.62 ± 0.3 | – | –
ERMTTREKKVLEAGMGKVTSASFG [HDAC6] | 4.1 ± 0.14 | 4.19 ± 0.14 | – | –
SPSKSFWTRITCAEEGWSPTPKCL [CFHR2] | 2.17 ± 0.22 | 2.47 ± 0.33 | – | –
SLFSQALKDEEAKVLQLTVRCEAL [CCDC89] | 2.8 ± 0.26 | 2.76 ± 0.17 | – | –
HNTVKLGAFQAQEKELVFDIDMTD [PRIM1] | 4.22 ± 0.19 | 4.52 ± 0.28 | – | –
NAFQETWYWHGDVNSNKVVMSGVK [LOXL2] | 2.75 ± 0.31 | 2.84 ± 0.48 | – | –
CLPPEPSPDDPESVKIIFKLPNDS [FAF2] | 4.76 ± 0.17 | 4.82 ± 0.13 | – | –
ALLDQIRQGIQLNKTPGAPESSAL [WAS] | 3.3 ± 0.16 | 3.15 ± 0.53 | – | –
KQMSFLEKRGCPRTALEYCKLILS [TCF25] | 3.12 ± 1 | 3.02 ± 0.2 | – | –
IKECLSKGTFSDVTFKLDDGAISA [RHOBTB1] | 3.67 ± 0.18 | 3.95 ± 0.19 | – | –
MSDRRENDMSPSNNVVPIHVPPTT [RAB11A] | 4.67 ± 0.17 | 4.87 ± 0.12 | – | –
SYKIEEISPSTLKNSLFPSPISSI [KCNK9] | 2.6 ± 0.21 | 2.7 ± 0.33 | – | –
RIYSYQMALTPVVVTLWYRAPEVL [CDK4] | 2.98 ± 0.12 | 2.77 ± 0.47 | – | –
LSPTQRQKNFELAFTMAENLANCE [SMTNL2] | 3.39 ± 0.19 | 3.67 ± 0.52 | – | –

Sequence | protein stability index [1] | protein stability index [2] | protein stability index (treatment: DMSO, c terminus: native) | protein stability index (treatment: MLN4924 1 uM, 8 h, c terminus: native)
RALDRLQEVPHEGPMCDLLWSDPD [PPP2CA] | 4.42 ± 0.34 | 4.66 ± 0.17 | – | –
EVSCQCQLHPPRWYSRLQACQWGG | 2.17 ± 0.13 | 2.29 ± 0.4 | – | –
CGTPLRKSNFRVQLFEDPTVDKEV [MNAT1] | 3.84 ± 0.09 | 3.75 ± 0.16 | – | –
QTWVRDHHPENGEEAVTVLEDLES [ZNF24] | 5.34 ± 0.21 | 5.43 ± 0.17 | – | –
ELAYLRKNHEEEMLALRGQTGGDV [KRT16] | 4.26 ± 0.28 | 4.41 ± 0.17 | – | –
GPGPQLRRGWRPSSREDSLEAGLP [CHGA] | 3.86 ± 0.14 | 4.24 ± 0.31 | – | –
AAPGALGSLHAGGARLVAACSAWL [AUH] | 2.65 ± 0.047 | 2.39 ± 0.34 | – | –
SKRNIKKGAVPRSIPNLAEVKKKG [HDAC6] | 4.26 ± 0.47 | 4.46 ± 0.44 | – | –
ACGGHVELAALLIERGASLEEVND [ANKRD17] | 3.91 ± 0.29 | 3.73 ± 0.22 | – | –
QCSMPLHVAPLLAAAGLHASPMSA [NR2F2] | 2.58 ± 0.26 | 2.63 ± 0.24 | – | –
DKVRALEEANADLEVKIHDWYQKQ [KRT15] | 4.4 ± 0.24 | 4.3 ± 0.36 | – | –
PFAYLTVLDLSKSLSAALLTAALL [POMT2] | 2.98 ± 0.23 | 3.02 ± 0.16 | – | –
CSGTELSLAHCRHDGEDVACPQGG [LOXL2] | 4.78 ± 0.73 | 4.3 ± 0.24 | – | –
KVKWTHEEDEQLRALVRQFGQQDW [MYBL2] | 3.19 ± 0.44 | 3.44 ± 0.12 | – | –
SSEKLNLQKDLETRPTQHELRLYK [CEP70] | 4.12 ± 0.16 | 4.1 ± 0.36 | – | –
HNSGPPPPPARGRGAPPPPPSRAP [WASL] | 5.25 ± 0.29 | 5.06 ± 0.15 | – | –
LSKASEPKYQLFVPQLVTGRCATR [RNF180] | 2.88 ± 0.4 | 2.94 ± 0.2 | – | –
APYAAAAAAQSYPGYLPYSPEPPS [IRX6] | 4.06 ± 0.14 | 4.2 ± 0.15 | – | –
KSPPQLRQFLPEEFMKTLEKTGPQ [DENND6A] | 4.63 ± 0.3 | 4.43 ± 0.32 | – | –
ECTQMDHLGCMHYTVRAPVGVAGL [ALDH8A1] | 2.51 ± 0.37 | 2.68 ± 0.36 | – | –
AAHRLARRLYHLEGFQRCDVARQL [PSD2] | 2.21 ± 0.43 | 2.46 ± 0.46 | – | –
LALFPLLPKVLQKYWCVTATRVAP [ZBED1] | 2.98 ± 0.3 | 2.94 ± 0.94 | – | –
VAARTPAVEGLTEAEEEELRAELT [TPD52L2] | 5.56 ± 0.23 | 5.26 ± 0.26 | – | –

Sequence | protein stability index [1] | protein stability index [2] | protein stability index (treatment: DMSO, c terminus: native) | protein stability index (treatment: MLN4924 1 uM, 8 h, c terminus: native)
RASPTRTAPLPMPEGPEPAAPGKQ [ELOA2] | 5.4 ± 0.14 | 5.66 ± 0.1 | – | –
TCCYFKFIIEYYNIRPADSRWVRD [FBXO34] | 2.84 ± 1.2 | 2.29 ± 0.54 | – | –
ETCSCGYYLHPLPAGAEYCSSARH [SCNN1D] | 3.52 ± 0.36 | 3.63 ± 0.43 | – | –
FVDFFVRLFTQLKFGVVQTSVEEC [CLCN6] | 3.59 ± 0.27 | 3.07 ± 0.68 | – | –
GSNLDDAKGLAESLELPKAIQDQL [FANCE] | 5.08 ± 0.53 | 5.3 ± 0.33 | – | –
TKCRKRKLERIARLEDKVKTLKAE [JUNB] | 4.28 ± 0.23 | 4.42 ± 0.29 | – | –
GEATAAPAPLCGGPSAEAYLLHPA [TBX6] | 4.17 ± 0.22 | 4.47 ± 0.13 | – | –
MISTYEFGKSFFQRLNQDRLLGG [SLC25A39] | – | – | 3.21 ± 0.83 | 2.44 ± 0.27
RDHHSTHYRASEEEPEYGEEIKGY [CHGB] | 5.1 ± 0.25 | 5.05 ± 0.13 | – | –
GDLAYRRQEYQKALQEYSSISEKL [C8orf76] | 4.14 ± 0.25 | 4.16 ± 0.2 | – | –
RQITQVYGFYDECLRKYGNANVWK [PPP2CA] | 2.19 ± 0.33 | 2.33 ± 0.26 | – | –
SSNYFSPRESTDFSSSSQEAFAAS [ZBTB22] | 4.41 ± 0.17 | 4.41 ± 0.15 | – | –
GTVHCQIVSTQITRPSGNNGNRRR [PHTF1] | 4.25 ± 0.18 | 4.51 ± 0.21 | – | –
FQFLSWPDYGVPSSAASLIDFLRV [PTPN9] | 2.7 ± 0.36 | 2.53 ± 0.41 | – | –
FFGMAFNFIVNDSRKKPIWNVLMW [SOAT1] | 2.6 ± 0.55 | 2.19 ± 0.73 | – | –
ATYLRCQLLLIKALQEKLWNVAAP [INTS4] | 3.16 ± 0.3 | 2.9 ± 0.39 | – | –
GTELIQTPLASSTDHQTPPTSPVQ [HDAC6] | 5.11 ± 0.33 | 5.25 ± 0.29 | – | –
GARCATWFQDPTRFTGTMDAFVKI [SLC25A39] | 2.36 ± 0.5 | 2.61 ± 0.54 | – | –
VPTVSRPYSFIEFDTFIQKTKKLY [SEC22B] | 2.3 ± 0.34 | 2.47 ± 0.17 | – | –
LRFLHENQLTHTDLKPENILFVNS [CLK3] | 2.49 ± 0.23 | 2.86 ± 0.36 | – | –
